Laboratory results published in patent EP4786492A1.

Tests used:
[1] = molecular target: human DLL3 protein expressed on CHO-K1 recombinant cells (human DLL3 extracellular segment fused to EpCAM transmembrane and intracellular regions) (human) (UniProt Q9NYJ7); assay: FACS, CHO-K1 hDLL3 cells, 0.032 nM antibody
[2] = molecular target: human delta-like ligand 3 (DLL3) on SHP77 cells (human) (UniProt Q9NYJ7); assay: FACS on SHP77 cells
[3] = molecular target: mouse DLL3 on CHO-K1-mDLL3 cells (mouse) (UniProt O88516); assay: FACS, CHO-K1-mDLL3 cells, 100 nM antibody
Chain of mouse DLL3 on CHO-K1-mDLL3 cells (mouse) (O88516 other isoform, or with tags, fused parts or gaps limits assumed): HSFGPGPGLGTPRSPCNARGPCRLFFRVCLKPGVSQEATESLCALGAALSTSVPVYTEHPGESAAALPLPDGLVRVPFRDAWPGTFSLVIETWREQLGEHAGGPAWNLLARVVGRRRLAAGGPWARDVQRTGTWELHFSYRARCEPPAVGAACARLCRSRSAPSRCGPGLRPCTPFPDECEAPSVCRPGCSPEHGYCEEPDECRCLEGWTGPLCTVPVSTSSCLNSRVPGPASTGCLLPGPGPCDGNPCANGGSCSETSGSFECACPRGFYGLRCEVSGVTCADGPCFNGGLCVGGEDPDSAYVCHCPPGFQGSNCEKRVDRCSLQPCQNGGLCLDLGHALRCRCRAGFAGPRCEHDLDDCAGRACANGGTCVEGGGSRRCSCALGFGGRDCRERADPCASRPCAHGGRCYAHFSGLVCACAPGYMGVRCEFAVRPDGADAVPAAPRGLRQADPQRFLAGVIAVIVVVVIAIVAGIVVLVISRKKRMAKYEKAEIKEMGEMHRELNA

[4] = molecular target: human DLL3 protein (extracellular segment, His tag) (human) (UniProt Q9NYJ7); assay: SPR (Biacore 8K), antibody captured on Protein A chip, DLL3 antigen in solution, 1:1 Langmuir fit
Chain of human DLL3 protein (extracellular segment, His tag) (human) (Q9NYJ7 27-492): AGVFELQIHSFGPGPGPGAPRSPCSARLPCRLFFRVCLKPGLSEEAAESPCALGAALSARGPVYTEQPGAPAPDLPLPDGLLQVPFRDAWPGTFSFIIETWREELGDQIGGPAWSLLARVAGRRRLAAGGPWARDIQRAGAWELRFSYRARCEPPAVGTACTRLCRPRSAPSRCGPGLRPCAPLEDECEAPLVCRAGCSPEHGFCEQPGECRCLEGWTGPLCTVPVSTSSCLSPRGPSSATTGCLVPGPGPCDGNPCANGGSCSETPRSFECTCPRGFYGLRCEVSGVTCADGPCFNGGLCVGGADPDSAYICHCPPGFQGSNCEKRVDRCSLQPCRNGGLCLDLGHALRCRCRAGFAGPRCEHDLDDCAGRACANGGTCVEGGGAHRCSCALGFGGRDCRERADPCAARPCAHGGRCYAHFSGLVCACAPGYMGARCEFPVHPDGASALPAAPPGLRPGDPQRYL

[5] = molecular target: monkey DLL3 on CHO-K1-cyno DLL3 cells (cynomolgus monkey); assay: FACS, CHO-K1-cyno DLL3 cells, 4 nM antibody
Chain of monkey DLL3 on CHO-K1-cyno DLL3 cells (cynomolgus monkey) (chain, as listed by the source limits assumed): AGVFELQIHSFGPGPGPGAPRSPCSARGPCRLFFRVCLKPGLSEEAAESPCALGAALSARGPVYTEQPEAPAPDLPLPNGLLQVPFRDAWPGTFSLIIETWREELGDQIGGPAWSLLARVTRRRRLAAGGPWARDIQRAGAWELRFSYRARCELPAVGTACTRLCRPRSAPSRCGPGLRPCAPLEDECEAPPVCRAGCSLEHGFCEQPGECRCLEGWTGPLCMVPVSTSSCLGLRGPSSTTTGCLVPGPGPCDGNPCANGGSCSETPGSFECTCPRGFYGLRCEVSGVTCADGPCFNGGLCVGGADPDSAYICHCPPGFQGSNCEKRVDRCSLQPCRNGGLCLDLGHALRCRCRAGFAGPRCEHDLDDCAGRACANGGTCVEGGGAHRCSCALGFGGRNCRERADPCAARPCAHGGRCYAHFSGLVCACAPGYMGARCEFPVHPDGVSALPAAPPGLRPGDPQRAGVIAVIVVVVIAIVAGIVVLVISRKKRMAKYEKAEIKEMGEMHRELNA

[6] = molecular target: DLL3 endogenously expressed on NCI-H82 cells (UniProt Q9NYJ7); assay: FACS on NCI-H82 cells; antibody 20 nM
Chain of DLL3 endogenously expressed on NCI-H82 cells (Q9NYJ7 27-618): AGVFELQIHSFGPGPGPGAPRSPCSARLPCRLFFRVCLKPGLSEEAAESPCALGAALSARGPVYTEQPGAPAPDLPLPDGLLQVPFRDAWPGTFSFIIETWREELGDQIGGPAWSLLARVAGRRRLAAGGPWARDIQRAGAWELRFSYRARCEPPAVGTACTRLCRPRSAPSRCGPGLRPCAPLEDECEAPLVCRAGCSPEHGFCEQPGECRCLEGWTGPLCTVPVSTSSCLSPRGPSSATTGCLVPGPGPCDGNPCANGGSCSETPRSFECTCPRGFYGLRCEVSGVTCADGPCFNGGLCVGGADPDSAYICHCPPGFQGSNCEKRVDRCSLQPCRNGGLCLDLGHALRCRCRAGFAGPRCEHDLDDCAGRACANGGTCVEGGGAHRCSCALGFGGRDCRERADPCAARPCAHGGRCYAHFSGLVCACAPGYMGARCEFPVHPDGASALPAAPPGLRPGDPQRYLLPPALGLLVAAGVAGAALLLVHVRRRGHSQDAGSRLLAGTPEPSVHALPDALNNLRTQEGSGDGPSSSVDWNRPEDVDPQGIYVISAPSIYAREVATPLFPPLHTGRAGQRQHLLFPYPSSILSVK

[7] = molecular target: mouse DLL3 on CHO-K1-mDLL3 cells (mouse) (UniProt O88516); assay: FACS, CHO-K1-mDLL3 cells, 0.00128 nM antibody
[8] = molecular target: mouse DLL3 on CHO-K1-mDLL3 cells (mouse) (UniProt O88516); assay: FACS, CHO-K1-mDLL3 cells, 0.16 nM antibody
[9] = molecular target: human DLL3 protein expressed on CHO-K1 recombinant cells (human DLL3 extracellular segment fused to EpCAM transmembrane and intracellular regions) (human) (UniProt Q9NYJ7); assay: FACS, CHO-K1 hDLL3 cells, 100 nM antibody
[10] = molecular target: mouse DLL3 on CHO-K1-mDLL3 cells (mouse) (UniProt O88516); assay: FACS, CHO-K1-mDLL3 cells, 0.032 nM antibody
[11] = molecular target: human DLL3 protein expressed on CHO-K1 recombinant cells (human DLL3 extracellular segment fused to EpCAM transmembrane and intracellular regions) (human) (UniProt Q9NYJ7); assay: FACS, CHO-K1 hDLL3 cells, 0.8 nM antibody
[12] = molecular target: DLL3 endogenously expressed on NCI-H82 cells (UniProt Q9NYJ7); assay: FACS on NCI-H82 cells; antibody 100 nM
[13] = molecular target: mouse DLL3 on CHO-K1-mDLL3 cells (mouse) (UniProt O88516); assay: FACS, CHO-K1-mDLL3 cells, 20 nM antibody
[14] = molecular target: monkey DLL3 on CHO-K1-cyno DLL3 cells (cynomolgus monkey); assay: FACS, CHO-K1-cyno DLL3 cells, 20 nM antibody
[15] = molecular target: human DLL3 protein expressed on CHO-K1 recombinant cells (human DLL3 extracellular segment fused to EpCAM transmembrane and intracellular regions) (human) (UniProt Q9NYJ7); assay: FACS, CHO-K1 hDLL3 cells, 4 nM antibody
[16] = molecular target: mouse DLL3 on CHO-K1-mDLL3 cells (mouse) (UniProt O88516); assay: FACS, CHO-K1-mDLL3 cells, 0.0064 nM antibody
[17] = molecular target: mouse DLL3 on CHO-K1-mDLL3 cells (mouse) (UniProt O88516); assay: FACS, CHO-K1-mDLL3 cells, 4 nM antibody
[18] = molecular target: monkey DLL3 on CHO-K1-cyno DLL3 cells (cynomolgus monkey); assay: FACS, CHO-K1-cyno DLL3 cells, 0.8 nM antibody
[19] = molecular target: monkey DLL3 on CHO-K1-cyno DLL3 cells (cynomolgus monkey); assay: FACS, CHO-K1-cyno DLL3 cells, 0.16 nM antibody
[20] = molecular target: human DLL3 protein expressed on CHO-K1 recombinant cells (human DLL3 extracellular segment fused to EpCAM transmembrane and intracellular regions) (human) (UniProt Q9NYJ7); assay: FACS, CHO-K1 hDLL3 cells, 20 nM antibody
[21] = molecular target: human DLL4 protein (Acro, Cat. No. DL4-H5227) (human) (UniProt Q9NR61); assay: ELISA, coated hDLL4; maximum over 0.1, 1, 10, 100 nM antibody
Chain of human DLL4 protein (Acro, Cat. No. DL4-H5227) (human) (Q9NR61 27-524 limits assumed): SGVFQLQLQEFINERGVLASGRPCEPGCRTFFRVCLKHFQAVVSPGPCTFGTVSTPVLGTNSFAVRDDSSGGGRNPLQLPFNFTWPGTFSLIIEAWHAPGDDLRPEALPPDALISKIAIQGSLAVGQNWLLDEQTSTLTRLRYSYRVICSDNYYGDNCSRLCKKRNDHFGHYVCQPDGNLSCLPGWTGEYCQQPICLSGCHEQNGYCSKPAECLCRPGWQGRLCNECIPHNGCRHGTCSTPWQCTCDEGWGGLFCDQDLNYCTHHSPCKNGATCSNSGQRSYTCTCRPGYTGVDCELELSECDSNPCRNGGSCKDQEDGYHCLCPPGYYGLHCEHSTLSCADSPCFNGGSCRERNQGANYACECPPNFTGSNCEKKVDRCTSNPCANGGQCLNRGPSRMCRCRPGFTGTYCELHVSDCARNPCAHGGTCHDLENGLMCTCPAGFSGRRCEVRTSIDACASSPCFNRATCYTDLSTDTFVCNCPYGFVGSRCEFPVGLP

[22] = molecular target: human DLL3 protein expressed on CHO-K1 recombinant cells (human DLL3 extracellular segment fused to EpCAM transmembrane and intracellular regions) (human) (UniProt Q9NYJ7); assay: FACS, CHO-K1 hDLL3 cells, 0.0064 nM antibody
[23] = molecular target: monkey DLL3 on CHO-K1-cyno DLL3 cells (cynomolgus monkey); assay: FACS, CHO-K1-cyno DLL3 cells, 0.032 nM antibody
[24] = molecular target: human DLL3 protein expressed on CHO-K1 recombinant cells (human DLL3 extracellular segment fused to EpCAM transmembrane and intracellular regions) (human) (UniProt Q9NYJ7); assay: FACS, CHO-K1 hDLL3 cells, 0.00128 nM antibody
[25] = molecular target: DLL3 endogenously expressed on NCI-H82 cells (UniProt Q9NYJ7); assay: FACS on NCI-H82 cells; antibody 0.0064 nM
[26] = molecular target: mouse DLL3 on CHO-K1-mDLL3 cells (mouse) (UniProt O88516); assay: FACS, CHO-K1-mDLL3 cells, 0.8 nM antibody
[27] = molecular target: human DLL3 protein expressed on CHO-K1 recombinant cells (human DLL3 extracellular segment fused to EpCAM transmembrane and intracellular regions) (human) (UniProt Q9NYJ7); assay: FACS, CHO-K1 hDLL3 cells, 0.16 nM antibody
[28] = molecular target: monkey DLL3 on CHO-K1-cyno DLL3 cells (cynomolgus monkey); assay: FACS, CHO-K1-cyno DLL3 cells, 100 nM antibody
[29] = molecular target: DLL3 endogenously expressed on NCI-H82 cells (UniProt Q9NYJ7); assay: FACS on NCI-H82 cells; antibody 0.8 nM
[30] = molecular target: monkey DLL3 on CHO-K1-cyno DLL3 cells (cynomolgus monkey); assay: FACS, CHO-K1-cyno DLL3 cells, 0.00128 nM antibody
[31] = molecular target: monkey DLL3 on CHO-K1-cyno DLL3 cells (cynomolgus monkey); assay: FACS, CHO-K1-cyno DLL3 cells, 0.0064 nM antibody
[32] = molecular target: DLL3 endogenously expressed on NCI-H82 cells (UniProt Q9NYJ7); assay: FACS on NCI-H82 cells; antibody 0.032 nM
[33] = molecular target: DLL3 endogenously expressed on NCI-H82 cells (UniProt Q9NYJ7); assay: FACS on NCI-H82 cells; antibody 0.16 nM
[34] = molecular target: DLL3 endogenously expressed on NCI-H82 cells (UniProt Q9NYJ7); assay: FACS on NCI-H82 cells; antibody 0.00128 nM
[35] = molecular target: DLL3 endogenously expressed on NCI-H82 cells (UniProt Q9NYJ7); assay: FACS on NCI-H82 cells; antibody 4 nM
[36] = molecular target: human DLL1 protein (Acro, Cat. No. DL1-H52H8) (human) (UniProt O00548); assay: ELISA, coated hDLL1; maximum over 0.1, 1, 10, 100 nM antibody
Chain of human DLL1 protein (Acro, Cat. No. DL1-H52H8) (human) (O00548 18-540 limits assumed): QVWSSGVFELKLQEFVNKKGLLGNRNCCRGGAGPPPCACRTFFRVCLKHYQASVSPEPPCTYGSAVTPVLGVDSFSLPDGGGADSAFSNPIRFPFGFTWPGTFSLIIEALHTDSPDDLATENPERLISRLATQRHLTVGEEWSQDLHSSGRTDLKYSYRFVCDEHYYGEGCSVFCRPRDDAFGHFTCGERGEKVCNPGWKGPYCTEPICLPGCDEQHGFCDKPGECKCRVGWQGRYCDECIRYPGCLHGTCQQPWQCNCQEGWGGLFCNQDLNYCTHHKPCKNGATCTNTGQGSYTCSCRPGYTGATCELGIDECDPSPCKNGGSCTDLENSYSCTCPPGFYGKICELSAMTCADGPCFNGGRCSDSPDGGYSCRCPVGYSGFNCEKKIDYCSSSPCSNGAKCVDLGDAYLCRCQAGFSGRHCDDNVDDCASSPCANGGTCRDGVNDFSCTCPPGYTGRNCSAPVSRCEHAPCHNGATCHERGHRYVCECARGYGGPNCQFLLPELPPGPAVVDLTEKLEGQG

Chain of human delta-like ligand 3 (DLL3) on SHP77 cells (human) (Q9NYJ7 27-618, stated change not applied): as the sequence (Q9NYJ7 27-618) above
Chain of human DLL3 protein expressed on CHO-K1 recombinant cells (human DLL3 extracellular segment fused to EpCAM transmembrane and intracellular regions) (human) (Q9NYJ7 other isoform, or with tags, fused parts or gaps limits assumed): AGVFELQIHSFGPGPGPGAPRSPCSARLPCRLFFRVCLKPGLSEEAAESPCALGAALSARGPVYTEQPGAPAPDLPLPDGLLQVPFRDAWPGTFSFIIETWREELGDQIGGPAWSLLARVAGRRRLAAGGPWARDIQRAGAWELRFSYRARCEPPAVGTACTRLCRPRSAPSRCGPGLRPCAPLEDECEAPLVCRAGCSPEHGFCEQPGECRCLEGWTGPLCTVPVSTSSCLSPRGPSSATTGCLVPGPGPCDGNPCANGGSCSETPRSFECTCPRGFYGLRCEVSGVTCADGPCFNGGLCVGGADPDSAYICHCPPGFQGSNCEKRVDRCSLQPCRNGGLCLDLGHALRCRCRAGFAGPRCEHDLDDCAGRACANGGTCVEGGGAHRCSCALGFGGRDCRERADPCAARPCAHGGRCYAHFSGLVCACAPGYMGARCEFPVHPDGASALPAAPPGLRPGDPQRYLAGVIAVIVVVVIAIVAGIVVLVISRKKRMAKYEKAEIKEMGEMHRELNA

B1: Hab015VL4VH1b-hFc (scFv, part only; not given: VL-VH linker and human IgG1 Fc, V domains shown, not shown: another chain or arm of the molecule; a dimerising Fc or GST; small tags and cut ends)
VL: NIVLTQSPATLSLSPGERATLSCKASENVGTYVSWFQQKPGQSPRLLIYGASNRYTGIPARFSGSGSGTDFTLTISSLEPEDFAVYYCGQFYSFPSTFGGGTKVEIK
VH: EVQLVESGGGLVKPGGSLRLSCAASGITFSNFWMNWVRQAPGKGLEWVGQIRLKSEDYATHYAESVKGRFTISREDSKNTVYLQMNSLKTEDTAVYYCTTGYYFDYWGQGTTVTVSS
Binder B1 has an MFI [1] of 302 MFI, an MFI at 0.00128 nM [2] of 97 MFI and an MFI at 0.0064 nM [2] of 113 MFI. The MFI at 0.032 nM [2] was 169 MFI, the MFI at 0.16 nM [2] was 371 MFI and the MFI at 0.8 nM [2] was 720 MFI. It also gave an MFI at 4 nM [2] of 829 MFI, an MFI at 20 nM [2] of 962 MFI and an MFI at 100 nM [2] of 1190 MFI. The MFI [3] was 1490 MFI, the Kd [4] was 0.0194 nM and the koff [4] was 3.49e-05 s⁻¹. For the same binder, the kon [4] was 1.8e+06 M⁻¹ s⁻¹, the MFI [5] was 6270 MFI and the MFI [6] was 1130. For the same binder, the MFI [7] was 114 MFI, the MFI [8] was 350 MFI and the MFI [9] was 11800 MFI. It also gave an MFI [10] of 172 MFI, an MFI [11] of 4640 MFI and an MFI [12] of 1410. The MFI [13] was 1340 MFI, the MFI [14] was 6820 MFI and the MFI [15] was 10300 MFI. For the same binder, the MFI [16] was 123 MFI, the MFI [17] was 1120 MFI and the MFI [18] was 4290 MFI. The MFI [19] was 1200 MFI, the MFI [20] was 11300 MFI and the Emax of OD450 nm binding value [21] was 0.67 OD450 nm. It also gave an MFI [22] of 152 MFI, an MFI [23] of 389 MFI and an MFI [24] of 120 MFI. The MFI [25] was 131, the MFI [26] was 813 MFI and the MFI [27] was 937 MFI. It also gave an MFI [28] of 7520 MFI, an MFI [29] of 914 and an MFI [30] of 117 MFI. For the same binder, the MFI [31] was 163 MFI, the MFI [32] was 218 and the MFI [33] was 461. The MFI [34] was 114, the MFI [35] was 1020 and the Emax of OD450 nm binding value [36] was 0.39 OD450 nm.

B2: Hab014VL3VH1-hFc (scFv, part only; not given: VL-VH linker and human IgG1 Fc, V domains shown, not shown: another chain or arm of the molecule; a dimerising Fc or GST; small tags and cut ends)
VL: DIVMTQSPDSLAVSLGERATINCKASEDIYNRLAWYQQKPGQTPKLLISGATSLETGVPDRFSGSGSGKDFTLTISSLQAEDVAVYYCQQYWSLPWTFGGGTKVEIK
VH: EVQLVQSGAEVKKPGASVKVSCKASGYTFTDYYMNWVRQAPGQRLEWMGDINPNHGDTGYNQKFTGRVTITVDKSASTAYMELSSLRSEDTAVYYCARNFFYYGTTYGWYFDVWGQGTTVTVSS
With B2 the MFI [1] was 555 MFI, the MFI at 0.00128 nM [2] was 91 MFI and the MFI at 0.0064 nM [2] was 96 MFI. The MFI at 0.032 nM [2] was 112 MFI, the MFI at 0.16 nM [2] was 179 MFI and the MFI at 0.8 nM [2] was 348 MFI. The MFI at 4 nM [2] was 567 MFI, the MFI at 20 nM [2] was 770 MFI and the MFI at 100 nM [2] was 1120 MFI. For the same binder, the MFI [3] was 382 MFI, the Kd [4] was 0.0946 nM and the koff [4] was 0.000129 s⁻¹. It also gave a kon [4] of 1.36e+06 M⁻¹ s⁻¹, an MFI [5] of 27700 MFI and an MFI [6] of 732. For the same binder, the MFI [7] was 103 MFI, the MFI [8] was 192 MFI and the MFI [9] was 16500 MFI. For the same binder, the MFI [10] was 137 MFI, the MFI [11] was 7320 MFI and the MFI [12] was 1030. It also gave an MFI [13] of 332 MFI, an MFI [14] of 32500 MFI and an MFI [15] of 15300 MFI. It also gave an MFI [16] of 110 MFI, an MFI [17] of 296 MFI and an MFI [18] of 8680 MFI. The MFI [19] was 1730 MFI, the MFI [20] was 15700 MFI and the Emax of OD450 nm binding value [21] was 0.1 OD450 nm. It also gave an MFI [22] of 299 MFI, an MFI [23] of 565 MFI and an MFI [24] of 207 MFI. For the same binder, the MFI [25] was 125, the MFI [26] was 253 MFI and the MFI [27] was 2060 MFI. The MFI [28] was 33900 MFI, the MFI [29] was 547 and the MFI [30] was 180 MFI. It also gave an MFI [31] of 245 MFI, an MFI [32] of 178 and an MFI [33] of 356. It also gave an MFI [34] of 108, an MFI [35] of 596 and an Emax of OD450 nm binding value [36] of 0.08 OD450 nm.
